ChEMBL document CHEMBL2074321, “A continuous fluorescence assay for the study of P-glycoprotein-mediated drug efflux using inside-out membrane vesicles” (Anal Biochem, 1999)

Test system: COc1cc2c(c(OC)c1OC)-c1ccc(OC)c(=O)cc1[C@@H](NC(C)=O)CC2
Experiment: TP_TRANSPORTER: uptake in membranes from CEM/VLB100 cells
Assay type: functional, cell membranes, Membrane

ATP-dependent translocase ABCB1 (Homo sapiens)
Km: 1.33 µM
